Experimental data published in IntAct's records for PubMed 15585574.

Molecular target: wasl_mouse Wasl (UniProt Q91YD9)
Sequence (Q91YD9 whole entry): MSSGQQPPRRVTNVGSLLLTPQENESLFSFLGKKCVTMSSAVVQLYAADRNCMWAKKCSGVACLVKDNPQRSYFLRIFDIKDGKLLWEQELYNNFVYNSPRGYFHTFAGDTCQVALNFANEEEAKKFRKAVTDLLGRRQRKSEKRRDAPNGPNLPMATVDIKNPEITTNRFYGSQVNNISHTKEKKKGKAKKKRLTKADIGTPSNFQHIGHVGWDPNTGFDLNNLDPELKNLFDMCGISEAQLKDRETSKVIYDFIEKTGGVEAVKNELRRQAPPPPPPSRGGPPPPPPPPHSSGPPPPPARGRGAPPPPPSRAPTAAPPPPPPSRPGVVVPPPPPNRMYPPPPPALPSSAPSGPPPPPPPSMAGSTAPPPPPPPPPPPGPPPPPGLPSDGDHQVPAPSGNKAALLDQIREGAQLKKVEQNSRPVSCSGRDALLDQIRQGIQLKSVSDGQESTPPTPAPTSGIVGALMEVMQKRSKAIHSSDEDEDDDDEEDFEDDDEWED

Sequence of Src substrate cortactin (Mus musculus), Q60598 W525L (Q60598 whole entry W525L): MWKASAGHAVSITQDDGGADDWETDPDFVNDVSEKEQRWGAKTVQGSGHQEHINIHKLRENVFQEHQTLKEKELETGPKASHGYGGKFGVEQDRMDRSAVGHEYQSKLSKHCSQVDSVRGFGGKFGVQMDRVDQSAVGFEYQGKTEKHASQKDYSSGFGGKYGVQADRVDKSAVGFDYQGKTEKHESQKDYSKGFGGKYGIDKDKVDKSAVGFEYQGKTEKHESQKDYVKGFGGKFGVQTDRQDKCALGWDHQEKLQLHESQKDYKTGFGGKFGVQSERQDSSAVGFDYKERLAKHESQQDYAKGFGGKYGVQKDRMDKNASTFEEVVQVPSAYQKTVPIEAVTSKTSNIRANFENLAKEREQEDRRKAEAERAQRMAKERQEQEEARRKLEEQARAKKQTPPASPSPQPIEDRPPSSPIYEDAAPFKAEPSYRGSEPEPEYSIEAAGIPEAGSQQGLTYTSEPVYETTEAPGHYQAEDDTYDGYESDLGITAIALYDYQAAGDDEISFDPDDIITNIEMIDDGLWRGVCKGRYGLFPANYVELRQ

effect of a mutation on the interaction: disrupting interaction
Substance: Src substrate cortactin (Mus musculus), Q60598 W525L
